For test [1], the target named is T1, ETB receptors (Homo sapiens, UniProt P24530).
T1 sequence (P24530 27-442): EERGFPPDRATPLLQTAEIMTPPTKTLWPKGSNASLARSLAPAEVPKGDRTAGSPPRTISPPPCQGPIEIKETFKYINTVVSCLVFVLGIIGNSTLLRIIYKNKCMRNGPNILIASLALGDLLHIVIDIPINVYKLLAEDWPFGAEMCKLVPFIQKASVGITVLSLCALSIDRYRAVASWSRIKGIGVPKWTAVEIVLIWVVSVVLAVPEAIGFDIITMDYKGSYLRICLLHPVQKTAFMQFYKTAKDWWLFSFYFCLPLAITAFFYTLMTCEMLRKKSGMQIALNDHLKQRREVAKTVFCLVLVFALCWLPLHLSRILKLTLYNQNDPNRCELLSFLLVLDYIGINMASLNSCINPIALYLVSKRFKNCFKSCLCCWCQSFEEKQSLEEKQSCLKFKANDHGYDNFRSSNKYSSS

The next test concerns the target T2, ETA receptors (Homo sapiens, UniProt P25101).
T2 sequence (P25101 21-427): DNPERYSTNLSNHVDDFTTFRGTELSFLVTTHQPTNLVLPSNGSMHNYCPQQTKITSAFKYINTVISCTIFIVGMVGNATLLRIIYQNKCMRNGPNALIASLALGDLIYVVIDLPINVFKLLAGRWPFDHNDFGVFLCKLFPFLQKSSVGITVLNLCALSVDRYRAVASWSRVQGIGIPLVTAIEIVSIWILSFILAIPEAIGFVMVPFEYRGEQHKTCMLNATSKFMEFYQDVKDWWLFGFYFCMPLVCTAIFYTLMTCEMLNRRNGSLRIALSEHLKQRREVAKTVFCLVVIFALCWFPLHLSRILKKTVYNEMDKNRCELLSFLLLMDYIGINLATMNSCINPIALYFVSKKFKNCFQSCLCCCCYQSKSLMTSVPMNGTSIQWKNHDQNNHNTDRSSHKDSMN
As to conditions: cited from earlier work.

In test [2] the target is T1, ETB receptors. Particulars: cited from earlier work.

*1 amine or outer side, *2 acyl side, *3 side chain or, on linkers, in order; H or OH if unused. Where no end group is shown, it is not given here. Suc = O=C(CCC(=O)[*:2])[*:1]

“analog of ET-1, Suc-Asp-Glu-Glu-Ala-Val-Tyr-Phe-Ala-His-Leu-Asp-Ile-Ile-Trp; potent and specific agonist for the ETB receptors (Suc-DEEAVYFAHLDIIW) [IRL-1620, N-Succinyl-[Glu^9, Ala^11,15] endothelin 1]”: in the test with ETB receptors [1], the “selectivity for ETB over ETA receptors” value is given as “approximately 120,000 times”. Also, the results for the Ki in the test with ETA receptors and with ETB receptors [2] were 1900 nM and 0.016 nM, respectively.
